Experimental data published in paper PMC3814370, “Functional assignment of KEOPS/EKC complex subunits in the biosynthesis of the universal t^6A tRNA modification” (Nucleic Acids Research, 2013).

B1: Pcc1–Kae1 binary complex from Pyrococcus abyssi (complex)
chain 1: MKPKRVQGKIVIEFPSEDIAEVVYTSVLYEHVSVPYRRSRVNFRREGRRIVLEIEANDSSAMRGTVNSYLRWIKVALDVLNI
chain 2: MLALGIEGTAHTLGIGIVSEDKVLANVFDTLTTEKGGIHPKEAAEHHARLMKPLLRKALSEAGVSLDDIDVIAFSQGPGLGPALRVVATAARALAVKYRKPIVGVNHCIAHVEITKMFGVKDPVGLYVSGGNTQVLALEGGRYRVFGETLDIGIGNAIDVFARELGLGFPGGPKVEKLAEKGEKYIELPYAVKGMDLSFSGLLTEAIRKYRSGKYRVEDLAYSFQETAFAALVEVTERAVAHTEKDEVVLVGGVAANNRLREMLRIMTEDRGIKFFVPPYDLCRDNGAMIAYTGLRMYKAGISFRLEETIVKQKFRTDEVEIVW
notes: Pcc1, Pyrococcus abyssi; Kae1, Pyrococcus abyssi; Written as the unit of one Pcc1 and one Kae1 (predicted 45 kDa); Its dimerisation is a row of the complex with itself; also called PK; Kae1–Pcc1; source: E. coli Rosetta2 (DE3) pLysS, co-expressed, purified (heat 65°C, Ni-NTA, Superdex 200)

What was measured:
[1] = target: the molecule itself; experiment: SEC; gel filtration of purified proteins and complexes on Superdex 200 in storage buffer (LBs); apparent molecular mass (Supplementary Figure S2)
[2] = target: B1; experiment: cell-based or functional assay

| t^6A synthesis (14C-L-threonine incorporated into tRNA) by an equimolar mix of the two binary complexes, relative to PaKEOPS [2] [%] | Binder | stoichiometry N [1] |
| --- | --- | --- |
| – | B1 | 2 |
| ~80 | Bud32–Cgi121 binary complex from Pyrococcus abyssi (complex) chain 1: MKLIKQGAEAKIYLAEFSELYFDYPIKVIVKERIKKRYRIPEIDLKLRKERTIREARILRRAKEFGVNVPYVFEVDTKNMIIVMEYIEGERLKELLEKLPMEERLKVCREVGRQIGKLHEAGIVHGDLTTSNMILREGKVYFIDFGLAEFDDTIEAQGVDLHLLKRAMESTHYKWFERGFEEVLKGYIEIRGEDKGREIREKIREIELRGRYRERSWITQ chain 2: MTPKFKNFKHDNSGQVETYLFEVISKYTMLEIKTKFGKLCIAKVKLASESIERALNLCNDNCQIVSAKCHEEVIFATILAIKAFSSGRNTAKTIKGEILLRLAGVKQIKDAIKIIGARKGENLIIYFGVSDPCSSLKDFISSLGLREEPLKPCDEDEVKRGFERAAIIEAL | – |
